B1: CLK3 (parent)
chain: FGEDYYGPSRSRHRRRSRERGPYR

Variants of: B1
Test: protein stability index of a GFP-peptide fusion (GPS, HEK-293T) (PSI 1-6); higher = more stable
Settings: c terminus: a fixed tail appended
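Further: lentivirally expressed fusions sorted by FACS into six bins by GFP to DsRed ratio, PSI derived from sequencing read proportions per bin multiplied by bin number.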

Protein stability index: each site, then its substitutions
R24: T 1.81; C 1.92; L 1.96; P 3.48; W 2.18; S 2.46; D 1.9; Q 2.14; M 2.85; I 2.68; F 2.8; N 2.46; H 2.67; E 2.32; G 3.26
R10: Q 2.7; W 2.85; A 2.9; N 2.63; T 2.41; C 2.45; G 3.15; K 2.58; E 3.36; P 2.82; M 3.16; V 2.52; D 2.75; Y 2.12
Y5: E 4.86; C 4.48; P 4.3; F 3.11; K 5.11; D 4.95; L 4.47; I 4.44; H 4.64; A 3.53; R 5.21; G 4; Q 4.7; V 4.36; N 4.51
Y6: F 2.4; V 4.02; I 4.38; K 5.1; N 4.47; D 4.59; H 4.07; W 2.52; Q 5.36; C 4.75; T 4.27; R 4.67; A 4.61
R16: H 2.35; S 1.77; V 2.23; I 1.96; P 1.63; D 2.15; L 1.62; N 2.26; F 1.64; M 1.9
P22: Y 2.39; R 1.97; C 2.8; F 2.62; H 2.65; E 2.05; T 2.82; M 2.54; L 2.37; S 2.21; G 2.54; V 3.03; A 2.82; K 2.19; Q 2.65
G7: T 3.53; W 2.06; Y 2.78; Q 2.82; M 3.06; A 3.32; C 2.95; E 4.32; K 3.71; S 3.25; I 4.23; V 4.13; N 2.06; R 3.07
S17: A 2.85; P 2.6; L 2.43; Q 2.89; W 4.02; C 2.83; M 3.93; H 3.52; T 3.45; V 2.86; D 2.58; Y 3.4; F 3.51; I 3.18; G 3.1; E 2.01
R15: I 2.43; S 2.04; Q 1.98; P 2.54; T 1.91; A 2.18; Y 2.69; W 2.11; D 2.34; G 1.98; C 1.57; K 3.27; L 2.23; E 1.95; N 2.47; F 1.85
S9: R 3; M 1.69; V 2.38; I 2.47; C 2.35; W 2.17; Y 2.56; Q 2.63; H 2.33; E 2.73; K 2.74; D 2.84; F 2.21; A 2.39; P 2.56
R20: Q 2.79; F 3.04; W 2.85; V 2.22; K 2.62; T 2.39; I 2.21; P 2.65; C 2.72; L 2.45; G 2.21; M 2.3; N 2.11; D 2.56
H13: L 2.18; N 2.55; V 2.16; G 2.46; Q 2.48; W 1.93; A 2.16; C 2.29; P 2.96; T 2.7; M 3.25; F 2.64; E 2.21; Y 2.52
D4: T 3.38; Q 2.55; H 3.52; I 3.86; C 2.81; F 3.2; N 2.1; S 2.21; R 3.34; A 3.2; Y 3.63; E 3.79; G 1.9; K 3.44; L 2.5; V 3.58
F1: H 4.65; N 4.44; G 4.79; C 4.54; Y 3.36; A 4.83; L 4.08; K 4.99; M 4.92; I 4.57; T 5.16; V 5.33; S 5.1
G2: W 4.3; M 3.85; L 3.38; H 2.5; N 4.4; Y 4.01; D 5.06; R 4.89; S 2.96; Q 2.49; T 2.65; V 1.03; P 3.52; I 1.99; C 2.52
P8: S 2.38; G 2.3; T 2.61; V 1.42; L 1.51; H 1.61; D 1.92; Q 1.59; W 1.53; N 2.32; Y 2.99; R 1.44; F 1.74; K 1.58
R18: V 2.29; W 3.29; I 2.23; Q 2.45; T 2.32; M 2.89; C 2.21; A 2.06; S 1.83; P 2.37; Y 2.36; K 2.46
Y23: V 3.15; E 2.35; F 1.65; I 2.31; R 2.11; G 2.43; Q 3.46; A 2.19; P 2.61; T 2.27; S 2.62; K 2.3; C 2.47; N 2.67; L 2.16
R14: K 3.03; F 2.83; W 3.15; Y 2.02; Q 2.25; D 2.31; T 2.42; I 2.41; M 2.13; V 2.22; C 1.85; H 2.44; G 2.62
S11: F 2.76; T 2.86; W 2.3; N 2.21; R 2.53; L 1.92; D 2.57; V 2.35; A 2.97; K 3.18; P 3.1; Y 2.99; M 2.13; Q 2.65; E 2.02
G21: C 3.2; P 2.95; F 3.47; Q 2.8; T 2.53; L 2.91; K 3.15; V 2.39; D 2.47; Y 3.37; A 2.69
E3: Y 4.08; C 3.26; S 1.73; K 3.96; R 3.46; N 3.63; M 3.83; I 4.08; Q 4.38; F 4.87; D 2.86; W 3.63; P 3.41
R12: G 2.16; N 2.52; A 2.13; M 2.03; H 2.51; W 2.44; P 2.39; T 2.27; L 1.48; Y 2.58; D 1.86; E 2.58
E19: F 4.17; T 3.81; C 4.35; M 4.15; P 4.39; Q 3.2; S 3.65; N 3.95; V 4.11; W 4.71; I 3.96; R 4.55; H 4.09; K 4.05

Reference: the supplement of paper PMC10567573
